The record followed here is patent publication US20230330242A1 (published 2023).

As a reminder, the Kd is the constant that tells how readily two partners part at equilibrium. A lower Kd goes with higher affinity. The koff is the first-order rate constant of dissociation. A word on the kon: it is the second-order rate constant of association.

The target in experiment [1] is T1, human ROR-1 endogenously expressed on JeKo-1 and MDA-MB-468 cells (human, UniProt Q01973 30-937). Briefly: cell-based or functional assay.
The target of another experiment is T2, Hu/Cy/Rh ROR1-His (human/cyno/rhesus, UniProt Q01973 30-403, limits assumed).
T2 construct: Purified His-tagged ROR1 protein; also called HUMAN/CYNO/RHESUS ROR-1; not shown: His tag
Briefly: SPR, purified protein.

In a further experiment the target is T3, Mouse ROR1-His (mouse, UniProt Q9Z139 30-403, limits assumed).
T3 construct: Purified His-tagged mouse ROR1 protein; not shown: His tag
T3 sequence (Q9Z139 30-403 limits assumed): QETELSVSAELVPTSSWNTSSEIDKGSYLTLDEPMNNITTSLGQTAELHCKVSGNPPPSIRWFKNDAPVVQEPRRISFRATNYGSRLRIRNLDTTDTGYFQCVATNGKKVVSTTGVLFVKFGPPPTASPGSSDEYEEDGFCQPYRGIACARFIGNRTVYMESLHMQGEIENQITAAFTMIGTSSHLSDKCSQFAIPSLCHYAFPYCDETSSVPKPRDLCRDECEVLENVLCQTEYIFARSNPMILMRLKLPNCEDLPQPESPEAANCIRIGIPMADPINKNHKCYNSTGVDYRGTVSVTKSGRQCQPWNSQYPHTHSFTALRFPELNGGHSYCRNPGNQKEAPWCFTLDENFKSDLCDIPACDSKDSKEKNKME
Nature of the experiment: SPR, purified protein. For orientation: SPR reads the build-up and loss of mass on a sensor chip optically.

Experiment [2] addresses T1, human ROR-1 endogenously expressed on …. Nature of the experiment: flow cytometry, cell binding saturation on ROR-1 positive cells. On the procedure:
A cell binding saturation assay was developed to evaluate how well the anti_ROR-1 antibodies developed in Example 28 bound to endogenously expressed extracellular ROR-1 protein on cell lines. […] Cells were then washed and subjected to secondary antibody staining and detection by flow cytometry. Mean fluorescence (MFI) was determined by analysis on cytometer software. […] (See FIG. 27).

Bounds are passed on as bounds.

B1: ATX-P-885 (antibody, human IgG1, kappa, V domains shown)
VH: QVQLQQWGAGLLKPSETLSLTCAVYGGSFSGYYWSWIRQPPGKGLEWIGEINHSGSTNYNPSLKSRVTISVDTSKNQFSLKLSSVTAADTAVYYCAREGVYEDYWGQGTLVTVSS
VL: EIVLTQSPATLSLSPGERATLSCRASQSVSNYLAWYQQKPGQAPRLLIYDAYNRATGIPARFSGSGSGTDFTLTISSLEPEDFAVYYCQQRSNWPLTFGQGTRLEIKR
notes: Full length IgG (IgG1, kappa) expressed in HEK293; also called mAb B
Regarding B1, the “percent receptor internalization relative to zero hours” value in experiment [1] is at least 75%. In the experiment with Hu/Cy/Rh ROR1-His, this molecule showed a Kd of 10.9 nM, a koff of 0.00295 s⁻¹ and an association rate constant (kon) of 270000 M⁻¹ s⁻¹. For the same molecule, in the experiment with Mouse ROR1-His, the dissociation constant (Kd) stood at 45.3 nM, the koff was determined as 0.00132 s⁻¹ and the on-rate constant (kon) came out at 29200 M⁻¹ s⁻¹. Also, the saturating concentration in experiment [2] turned out to be 74 nM.

B2: ATX-P-875 (antibody, human IgG1, kappa, V domains shown)
VH: not shown
VL: DIQMTQSPSSLSASVGDRVTITCRASQSISSYLNWYQQKPGKAPKLLIYAASSLQSGVPSRFSGSGSGTDFTLTISSLQPEDFATYYCQQYDNLPITFGQGTRLEIKR
notes: Full length IgG (IgG1, kappa) expressed in HEK293; also called mAb A
In turn, B2 displayed a saturating concentration in experiment [2] of 74 nM.
